Numbering of substitutions follows the chain as printed.
T1: human PD-L2 on CHO cells (CHO-hPD-L2 cells) (human, UniProt Q9BQ51 20-273)
T1 construct: whole, on cells; also called CHO-K1-PD-L1/PD-L2
T1 sequence (looked up): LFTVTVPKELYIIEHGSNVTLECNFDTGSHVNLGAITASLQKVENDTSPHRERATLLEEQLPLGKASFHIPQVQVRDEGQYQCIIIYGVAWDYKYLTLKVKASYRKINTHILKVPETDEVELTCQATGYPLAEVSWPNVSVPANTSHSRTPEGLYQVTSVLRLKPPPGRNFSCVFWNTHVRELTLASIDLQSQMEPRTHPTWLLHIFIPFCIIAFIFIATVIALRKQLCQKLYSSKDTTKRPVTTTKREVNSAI

T2: human PD-L2 protein (purchased from AcroBiosystems) (human, UniProt Q9BQ51 20-219, limits assumed, biotinylated in the blocking assays)
T2 construct: Bought soluble protein; also called PD-L2 antigen; biotinylated human PD-L2 protein
T2 sequence (looked up): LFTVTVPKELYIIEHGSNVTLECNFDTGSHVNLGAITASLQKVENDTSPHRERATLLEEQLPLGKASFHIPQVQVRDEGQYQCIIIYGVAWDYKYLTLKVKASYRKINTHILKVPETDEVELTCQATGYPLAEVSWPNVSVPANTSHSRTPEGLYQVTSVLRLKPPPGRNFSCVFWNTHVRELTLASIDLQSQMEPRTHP

B1: D-Ye-10 (antibody, V domains shown)
VH: QVQLQESGGGLVQAGASLRLSCASSGRTFSSMTIGWFRQTPGKEREFVAGIGWSTSKTVYKDSVKGRFTISTDNAKKTVYLQMNNLKPEDTAVYYCAEDSMNRGQFDYWGQGTQVTVSS
notes: Anti-PD-L2 heavy chain antibody: VHH linked to human IgG1 (LALA) Fc; the junction is not described
B2: D-Na-64 (antibody, V domains shown)
VH: B1 VH with Q1E, Q5V, A14P, A16G, S24A, E98A
notes: as for B1
B3: D-Ye-22 (antibody, V domains shown)
VH: QVQLQESGGGLVQAGDSLRLSCIGSRRTFTMAWFRQAPGKEREFVAGIWGPADHTIYANSVKGRFACSRDDSTNTIFLQMNSLELEDTALYLCAAADSSGDDFEYWGQGTQVTVSS
notes: as for B1
B4: D-Ye-32 (antibody, V domains shown)
VH: QVQLQESGGGLVQAGGSLRLSCAASGSVGSINAMAWFRQAPGKQRDVVAHMPSGGSTHYADSVKGRFTVSRDNAKNTVYLQMNSLKAEDTAVYYCWAAGLGWGQGTQVTVSS
notes: as for B1
B5: D-Na-58 (antibody, V domains shown)
VH: QVQLVESGGGLVQAGGSLTLSCTASGRTFSSYAMAWFRQAPGKERELLVTISRSGSTTYYLDSVKGRFTISRDNAKNTVYLQMNSLKPEDTAVYYCAAKRSLQDEVYYWGQGTQVTVSS
notes: as for B1
B6: D-Ye-29 (antibody, V domains shown)
VH: QVQLQESGGGLVQPGGSLRLSCAASGSEFSFIPTGWYRQTPGKQRDLVAVFTSGGLTNYADSVKGRFTISRNNTKNIVYLQMNSLKPEDTAVYYCSGVPGPHYNGPTSGINYWGQGTQVTVSS
notes: as for B1
B7: HZ-D-Ye-29-3 (antibody, V domains shown)
VH: B6 VH with Q1E, Q5L, T40A, D46E, N72D, T74S, I77T, K86R, P87A
notes: Humanized anti-PD-L2 heavy chain antibody: VHH linked to human IgG1 (LALA) Fc; the junction is not described
B8: HZ-D-Na-96-3 (antibody, V domains shown)
VH: EVQLVESGGGLVQPGGSLRLSCAASGRTFSSMTIGWFRQAPGKEREFVSGIGWTSGLTVYADSVKGRFTISRDNAKNSMYLQMNSLKPEDTAVYYCAADSMNRGQFDYWGQGTLVTVSS
notes: as for B7
B9: HZ-D-Na-96-2 (antibody, V domains shown)
VH: B8 VH with E44G, R45L, M79L
notes: as for B7
B10: K-Yr-13&14-16 (antibody, V domains shown)
VH: EVQLVESGGGLVQAGGSLRLSCAASTRTFITYAMGWFRQAPGKEREFVASINWSGASTYYADSVKGRFTISRHNAKNTVYLQMNSLKPEDTAVYYCAAALSAVVVTQILDYDYWGQGTLVTVSS
notes: Anti-PD-L1 heavy chain antibody: VHH linked to human IgG1 (LALA) Fc; the junction is not described
B11: K-Yr-13&14-09 (antibody, V domains shown)
VH: QVQLVESGGGLVKAGDSLRLSCAASGRTFTIYAIGWFRQAPGKEREFVATINWSGSMTNYTDSVKGRFTISRDNAKNTVYLQMNSLKPDDTAIYYCAAYVGATISTAHSRYDYWGQGTLVTVSA
notes: as for B10
B12: D-Ye-31 (antibody, V domains shown)
VH: B1 VH with A16G, R19G, S24A, E98A
notes: as for B1
B13: D-Na-80 (antibody, V domains shown)
VH: EVQLVESGGGLVQAGGSLRLSCAVSGVSFINYAMGWFRQAPGKEREFVAAISRFGGTTSYADSVKDRFSITTDTKDTVYLQTNSLKPEDTAVYYCAANSRILSRTAKDYDYWGQGTQVTVSS
notes: as for B1
B14: D-Na-89 (antibody, V domains shown)
VH: QVQLVESGGGLVQAGGSLRLSCAASGLTFINYAMGWFRQAPGKEREFVAAISWAGGTTSYADSVKDRFSITRDSAKDTVYLQTNSLKPEDTAVYYCAANSRILSRTAKDYDYWGQGTEVTVSS
notes: as for B1
B15: D-Na-90 (antibody, V domains shown)
VH: B14 VH with E118Q
notes: as for B1
B16: D-Na-87 (antibody, V domains shown)
VH: QVQLVESGGGLVQPGGSLRLSCAASGFAFDAYAMTWVRQAPGKGLEFLSRIYSHGSKIIYAGSVKGRFTIFRDNAKNTVYLQMNSLKPEDTAVYYCAAGPDNIPTTGEKYDFWGQGTQVTVSS
notes: as for B1
B17: D-Na-78 (antibody, V domains shown)
VH: QVQLVESGGGLVQAGGSLRLSCEASGVISINYAMAWFRQAPGKEREFVAAISRFGVTTSYADSVKDRFSIGITRDNAKDTMYLQTKSLKPEDTAVYYCAANSRILSRTAKDYDYWGQGTQVTVSS
notes: as for B1
B18: D-Na-67 (antibody, V domains shown)
VH: QVQLVESGGGLVQAGGSLRLSCAASGGLTFINYAMGWFRQAPGKEREFVAAISRFGGTTSYADSVKDRFSITRDVAKDTVYLQTNSLKPEDTAVYYCAANSRILSRTAADYDYWGQGTQVTVSS
notes: as for B1

These binders were tested against T1, human PD-L2 on CHO cells (CHO-hPD-L2 …) (assay: flow cytometry on CHO-hPD-L2 cells, PE anti-human IgG-Fc, median fluorescence intensity (MFI)).
Method: (§1) The expanded CHO-hPD-L2 cells were adjusted to a cell density of 2×10⁶ cells/ml, and were added to 96-well flow plate at 100 μl/well, and centrifuged for later use. […] The diluted samples were added to the 96-well flow plate with cells at 100 μl/well, incubated at 4° C. for 30 min, and washed twice with PBS. Goat F(ab')2 anti-human IgG-Fc (PE) (purchased from Abcam) diluted 100 times with PBS was added at 100 μl/well, incubated at 4° C. for 30 min, and washed twice with PBS. PBS was added at 100 μl/well to resuspend cells, and detection was performed on a CytoFlex (Bechman) flow cytometer and the corresponding MFI was calculated.

| Binder | EC50 (read off the curve) |
| --- | --- |
| B1 | ~50 nM |
| B2 | ~60 nM |
| B3 | ~20 nM |
| B4 | ~70 nM |
| B5 | ~50 nM |

The binders below were run against T2, human PD-L2 protein (purchased from …) (assay: BLI (ForteBio), antibody on AHQ sensor, 100 nM PD-L2 antigen, 1:1 model).
Method: (§2) ForteBio affinity determination was carried out according to existing methods (Estep, P et al., High throughput solution-based measurement of antibody-antigen affinity and epitope binning. MAbs, 2013.5(2): p. 270-8). In short, the sensor was equilibrated for 30 min under the line of the analysis buffer, and then the baseline was established after online detection for 60 s. The purified antibody obtained as described above was loaded onto the AhQ sensor online. […] Kinetic analysis was performed using a 1:1 binding model.
The experimental method was the same as that in Example 1.5.

| Binder | Kd | koff | kon |
| --- | --- | --- | --- |
| B6 | 1.93 nM | 0.000376 s⁻¹ | 195000 M⁻¹ s⁻¹ |
| B7 | 4.49 nM | 0.00173 s⁻¹ | 386000 M⁻¹ s⁻¹ |
| B8 | 1.99 nM | 0.00059 s⁻¹ | 297000 M⁻¹ s⁻¹ |
| B9 | 1.58 nM | 0.000512 s⁻¹ | 323000 M⁻¹ s⁻¹ |

These binders were tested against T3, human PD-L1 protein (purchased from AcroBiosystems) (human, UniProt Q9NZQ7 19-238, biotinylated in the blocking assay) (assay: BLI (ForteBio), antibody on AHQ sensor, 100 nM PD-L1 antigen, 1:1 model).
T3 construct: Bought soluble protein; also called PD-L1 antigen; biotinylated human PD-L1 protein
Method: as §2

T3 sequence (Q9NZQ7 19-238 limits assumed): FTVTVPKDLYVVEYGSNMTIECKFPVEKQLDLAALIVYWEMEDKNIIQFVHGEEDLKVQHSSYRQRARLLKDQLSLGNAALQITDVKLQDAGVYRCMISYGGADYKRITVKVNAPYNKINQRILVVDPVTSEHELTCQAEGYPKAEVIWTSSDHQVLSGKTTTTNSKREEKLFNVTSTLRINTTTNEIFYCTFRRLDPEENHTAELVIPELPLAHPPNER

| Binder | Kd | koff | kon |
| --- | --- | --- | --- |
| B10 | 11 nM | 0.00606 s⁻¹ | 553000 M⁻¹ s⁻¹ |
| B11 | 2.56 nM | 0.00137 s⁻¹ | 535000 M⁻¹ s⁻¹ |

Molecular target: T2, human PD-L2 protein (purchased from …)
Experiment: BLI (ForteBio), antibody on AHQ sensor, 100 nM PD-L2 antigen, 1:1 model
Remark: another data set of the same source
Method: as §2

| Binder | Kd | koff | kon |
| --- | --- | --- | --- |
| B6 | 1.93 nM | 0.000376 s⁻¹ | 195000 M⁻¹ s⁻¹ |
| B12 | 5.04 nM | 0.000644 s⁻¹ | 128000 M⁻¹ s⁻¹ |
| B1 | 5.22 nM | 0.00106 s⁻¹ | 203000 M⁻¹ s⁻¹ |
| B2 | 0.566 nM | 0.000369 s⁻¹ | 652000 M⁻¹ s⁻¹ |
| B13 | 3.4 nM | 0.000433 s⁻¹ | 127000 M⁻¹ s⁻¹ |
| B14 | 3.31 nM | 0.00112 s⁻¹ | 339000 M⁻¹ s⁻¹ |
| B15 | 3.79 nM | 0.00176 s⁻¹ | 463000 M⁻¹ s⁻¹ |
| B3 | 4.51 nM | 0.000825 s⁻¹ | 183000 M⁻¹ s⁻¹ |
| B16 | 0.655 nM | 0.000288 s⁻¹ | 440000 M⁻¹ s⁻¹ |
| B17 | 5.95 nM | 0.000345 s⁻¹ | 58100 M⁻¹ s⁻¹ |
| B4 | 5.69 nM | 0.00146 s⁻¹ | 256000 M⁻¹ s⁻¹ |
| B5 | 0.486 nM | 0.000325 s⁻¹ | 668000 M⁻¹ s⁻¹ |
| B18 | 3.58 nM | 0.000334 s⁻¹ | 93300 M⁻¹ s⁻¹ |

What follows are binders tested against T2, human PD-L2 protein (purchased from …) (assay: flow cytometry blocking assay: antibody pre-incubated with biotinylated human PD-L2 protein (1 ug/ml), binding of PD-L2 to CHO-hPD-1 cells read as MFI (APC)).
Method: (§3) CHO cells overexpressing human PD-1 (CHO-hPD-1 cells) were generated by transfection of the pCHO1.0 vector (purchased from Invitrogen™) cloning human PD-1 cDNA (purchased from Sino Biological). The expanded CHO-hPD-1 cells were adjusted to a cell density of 2×10⁶ cells/ml, and were added to 96-well flow plate at 100 μl/well, and centrifuged for later use. The purified mutant sample was diluted with PBS and diluted 3 times from […] for 12 points. […] The co-incubation sample was added to the above-mentioned 96-well flow plate with cells 100 μl/well, incubated at 4° C. for 30 min, and washed twice with PBS. APC goat anti-mouse IgG (minimum×reactive) antibody diluted 100 times with PBS (purchased from Biolegend®) was added at 100 μl/well, incubated at 4° C. for 30 min, and washed twice with PBS. PBS was added at 100 μl/well to resuspend cells, and detection was performed on a CytoFlex (Bechman) flow cytometer and the corresponding MFI was calculated.

| Binder | IC50 (read off the curve) |
| --- | --- |
| B8 | ~2 nM |
| B9 | ~2 nM |

What follows are binders tested against T2, human PD-L2 protein (purchased from …) (assay: flow cytometry blocking assay: antibody pre-incubated with biotinylated human PD-L2 protein (1 ug/ml), binding of PD-L2 to CHO-hPD-1 cells read as MFI).
Method: as §3

| Binder | IC50 (read off the curve) |
| --- | --- |
| B1 | ~4 nM |
| B2 | ~10 nM |
| B14 | ~30 nM |
| B3 | ~2 nM |
| B16 | ~30 nM |
| B5 | ~9 nM |

Molecular target: T1, human PD-L2 on CHO cells (CHO-hPD-L2 …)
Experiment: flow cytometry on CHO-hPD-L2 cells, PE anti-human IgG-Fc, median fluorescence intensity (MFI)
Remark: another data set of the same source
Method: as §1

| Binder | EC50 (read off the curve) |
| --- | --- |
| B8 | ~3 nM |
